Assay results published in patent US20230183305A1, “KERATIN BD-11, PREPARATION METHOD THEREFOR AND PHARMACEUTICAL COMPOSITION AND USE THEREOF” (INSTITUTE OF MATERIA MEDICA, CHINESE ACADEMY OF MEDICAL …, priority 2019, published 2023).

Legend:
Type in all cases: in vivo, mouse
[1] = tested on: PLO-induced epilepsy in ICR mice; assay: Pilocarpine (PLO) induced convulsive epilepsy in mice; design: mortality rate: unit not given here; details: for Cases of deaths / Grade IV seizure rate / mortality rate / Cases of Grade IV: PLO 225 mg/kg i.p., 10 mice; for Cases of Grade IV: 30 min observation; for Grade II seizure incubation period / Grade III seizure incubation period / Grade IV seizure incubation period: mean±SEM; for Grade IV seizure incubation period: no Grade IV recorded as maximum 1800 s
Method: • Animals: male ICR mice; • Drugs: Pilocarpine HCl (PLO, pilocarpine, pilocarpine hydrochloride), Diazepam (diazepam tablets), protein BD-11.
Experiment grouping: • Model group: • Diazepam 2 mg/kg group; • Protein BD-11, 50 mg/kg group, 200 mg/kg group.
The drug was administered once in the afternoon the day before modeling, PLO-225 mg/kg (modeling agent) was injected intraperitoneally 1 hour after the test drug was administered intragastrically on the day of modeling. And positive drug can be administered once 20 minutes before modeling. Observe for 30 minutes after PLO injection.
Observation indicators: ①Seizure situation: the time of seizures from Grade II to Grade IV; (2)the time to death.
Seizure grade: Refer to Racine grading standard: Grade 0: No response; Grade I: manifested as twitching of facial muscles or the corners of the mouth; Grade II: can nod; Grade III: twitching of one limb; Grade IV: rigidity or body twitching; Grade V: generalized epilepsy (generalized tonic seizures).
Count the number of Grade IV seizures and deaths in each group of mice in the experiment; Grade II, III and IV incubation period. […] Chi-square test was used for statistics of the number of cases. The mean value and standard error of the incubation period were calculated, and TTEST was used to compare the model group with other groups. P<0.05 was considered as a significant difference.

[2] = tested on: tracheal phenol red excretion in ICR mice; assay: Expectorant test, phenol red excretion method in mice; details: for Phenol red excretion: X±SEM, n=10
Method: • Animals: male ICR mice; • Drugs and reagents: Mucosolvan (ambroxol hydrochloride tablets), phenol red, sodium bicarbonate, protein BD-11; • Instruments: centrifuge (Sigma-3K15 type), balance (XS105DU type), Microplate tester (BIO-TEK type).
Experiment grouping: • Solvent control group; • Mucosolvan 30 mg/kg group; • Protein BD-11, 20 mg/kg group, 50 mg/kg group.
The animals were fasted and water was taken freely 16 hours before the experiment. Orally administered Mucosolvan and different doses of protein BD-11 (administration volume 10 ml/kg) in groups, and the solvent control group was given the same volume of distilled water. One hour later, 2.5% phenol red solution was injected intraperitoneally. Mice were sacrificed by neck dislocation after 30 minutes. Take a trachea from below the thyroid cartilage to the branch of the trachea, and put the trachea into 3 ml 5% NaHCO3 solution and let it stand for 3 hours. Take 1 ml of the supernatant and centrifuge at 3000 rpm for 5 minutes. Measure and record the absorbance at 546 nm. According to the standard curve of phenol red, the excretion of phenol red was calculated.
Record the time point of oral administration, the time point of intraperitoneal injection of 2.5% phenol red solution, and the time point of taking the trachea respectively; The absorbance of each group of samples was measured by the microplate reader at 546 nm, Calculate the excretion of phenol red according to the standard curve of phenol red. Calculate the mean and standard error of the data in each group, and use TTEST to compare the solvent control group with other groups, and P<0.05 is considered as a significant difference.
Give Mucosolvan (30 mg/kg) and different doses of protein BD-11 (20 mg/kg, 50 mg/kg). One hour later, 2.5% phenol red solution was intraperitoneally injected, and 30 minutes later, the mice were sacrificed by neck dislocation. Take the trachea from below the thyroid cartilage to the branch of the trachea, put the trachea into 3 ml of 5% NaHCO3 solution and let it stand for 3 hours, take 1 ml of supernatant, centrifuge at 3000 rpm for 5 minutes, measure and record the absorbance at 546 nm. According to the standard curve of phenol red, the excretion of phenol red was calculated.

[3] = tested on: acetic acid writhing in ICR mice; assay: Acetic acid writhing test in ICR mice; details: for Writhing incubation period: 0.6% acetic acid i.p.; for Writhing incubation period / Frequency of writhing: n=13; for Frequency of writhing: within 15 minutes
Method: • Animals: male ICR mice; • Drugs and reagents: aspirin, physiological saline, glacial acetic acid, protein BD-11.
Experiment grouping: • Model group; • Aspirin 300 mg/kg group; • Protein BD-11, 50 mg/kg group, 200 mg/kg group.
One day after the experimental animals adapt to the environment, Aspirin 300 mg/kg, protein BD-11 50 mg/kg, 200 mg/kg were given orally one hour in advance, and the administration volume was 10 ml/kg; Then, 0.6% acetic acid solution was injected intraperitoneally, and the incubation period (seconds) and frequency of writhing in the animal was observed within 15 minutes.
Calculate the mean and standard error of the data in each group. Compared with the model group by TTEST, P<0.05 was considered as statistically different.
One hour after oral administration of aspirin 300 mg/kg and different doses of protein BD-11 (50 mg/kg, 200 mg/kg), 0.6% acetic acid solution was intraperitoneally injected to observe the writhing incubation period and frequency of ICR mice.
0.6% acetic acid solution was injected into the abdominal cavity of mice, which caused deep and large area and long-term painful stimulation, causing the mice to writhe (the abdomen was contracted into an “S” shape, the trunk and hind legs were stretched, the buttocks were raised and creeping). The incubation time to start writhing and times of writhing in mice were used as the pain response indexs to determine whether the test sample had analgesic effect. […] Compared with the model group, P<0.05, which is statistically significant.

B1: BD-11: recombinant keratin, amino acid sequence SEQ ID NO:1, expressed in E. coli, band around 59 kD; Example 4 batch tested (protein, listed as Bos taurus)
chain: MSRQSTITFQTSSRRGFSTASATTPATSRSRFSSASVTHSPAGSGGLGRISGFGSRSLYNLGGTKRVSISGCGSNFRSGFGGRASSGFGVSGGFGYGGGIGGGHGGCGFSVCPPGGIQEVTVNQSLLTPLNLQIDPNIQRVRKEEREQIKTLNNKFASFIDKVRFLEQQNKVLETKWSLLQEQGTRTVRQSLEPFFEAYITDLRRQLDSITTERGRLDAELRTMQDVVEDFKVRYEDEINKRTAAENEFVALKKDVDAAYLNKVDLEAKANSLTDEINFLQMLFEAELCQMQTRVSDTSVVLSMDNNRSLDLDSIIAEVKAQYEEIANRSRAEAESWYQTKYEELQVTAGQHGDDLRNTKQEISETNRMIQRLRAEIDNVKKQCASLQTAIADAEQRGELALKDARAKLVDLEEALQKSKQDMARLLREYQELMNIKLALDVEIATYRKLLEGEECRLSGEGVSPVNISVVTSTVSSGYGGGSSIGSGSLGLSGGSGCSFMTSGGHSLGGSSFSNSSSRGLGGSGSSFKFVSTTSSSRKSYKH
[1]; BD-11 50 mg/kg intragastric
  Cases of deaths: 0
  Grade IV seizure rate: 50%
  mortality rate: 0
  Cases of Grade IV: 5
[1]; BD-11 50 mg/kg, PLO model
  Grade II seizure incubation period: 95 ± 6 s
  Grade III seizure incubation period: 164 ± 10 s
  Grade IV seizure incubation period: 1357 ± 154 s
[1]; BD-11 200 mg/kg dose group, PLO model
  Incubation period of epilepsy Grade III, comparison with model group: statistically different from the model group
[1]; BD-11 200 mg/kg intragastric
  Cases of deaths: 0
  Grade IV seizure rate: 60%
  mortality rate: 0
  Cases of Grade IV: 6
[1]; BD-11 200 mg/kg, PLO model
  Grade II seizure incubation period: 96 ± 6 s
  Grade III seizure incubation period: 164 ± 7 s
  Grade IV seizure incubation period: 1114 ± 191 s
[1]; dose not given
  Effect on incubation period of Grade III epilepsy in mice (summary): significantly prolong the incubation period of Grade III epilepsy
[2]; BD-11 20 mg/kg oral
  Phenol red excretion: 0.670 ± 0.082 µg/mL
[2]; BD-11 50 mg/kg dose group, P<0.05
  Excretion of phenol red vs solvent control group: significantly increased the excretion of phenol red
[2]; BD-11 50 mg/kg oral
  Phenol red excretion: 0.781 ± 0.043 µg/mL
[2]; dose not given
  Expectorant effect (summary): obvious expectorant effect
[3]; BD-11 50 mg/kg oral
  Writhing incubation period: 163.8 ± 8.2 s
  Frequency of writhing: 35.0 ± 2.5 times
[3]; BD-11 200 mg/kg dose group, P<0.05 vs model group
  Effect on number of writhing in mice: significantly reduce the number of writhing
[3]; BD-11 200 mg/kg oral
  Writhing incubation period: 299.9 ± 65.2 s
  Frequency of writhing: 23.3 ± 3.1 times
[3]; dose not given
  Effect on number of writhing times in mice (summary): significantly reduce the number of writhing times
